Measured values: US20260193293A1, “PEPTIDES CAPABLE OF INHIBITING PROTEIN-PROTEIN INTERACTIONS AT GABAB1A SUBUNIT AND USES THEREOF” (UNIVERSITY OF COPENHAGEN, priority 2022, published 2026)
Non-standard residues stand in square brackets, D forms with d. NMeW = CN[C@@H](Cc1c[nH]c2ccccc12)C(=O)O; NMeF = CN[C@@H](Cc1ccccc1)C(=O)O; NMeI = CC[C@H](C)[C@H](NC)C(=O)O; NMeT = CN[C@H](C(=O)O)[C@@H](C)O; NMeE = CN[C@@H](CCC(=O)O)C(=O)O; NMeD = CN[C@@H](CC(=O)O)C(=O)O; Sar = CNCC(=O)O

B1: …(N-Me-T)GDED (peptide)
peptide: Ac-ETEFIAWGP[NMeT]GDED-NH2
SMILES: CC[C@H](C)[C@H](NC(=O)[C@H](Cc1ccccc1)NC(=O)[C@H](CCC(=O)O)NC(=O)[C@@H](NC(=O)[C@H](CCC(=O)O)NC(C)=O)[C@@H](C)O)C(=O)N[C@@H](C)C(=O)N[C@@H](Cc1c[nH]c2ccccc12)C(=O)NCC(=O)N1CCC[C@H]1C(=O)N(C)[C@H](C(=O)NCC(=O)N[C@@H](CC(=O)O)C(=O)N[C@@H](CCC(=O)O)C(=O)N[C@@H](CC(=O)O)C(N)=O)[C@@H](C)O
B2: e… (peptide)
peptide: Ac-[dE]TEFIAWGPTGDED-NH2
SMILES: CC[C@H](C)[C@H](NC(=O)[C@H](Cc1ccccc1)NC(=O)[C@H](CCC(=O)O)NC(=O)[C@@H](NC(=O)[C@@H](CCC(=O)O)NC(C)=O)[C@@H](C)O)C(=O)N[C@@H](C)C(=O)N[C@@H](Cc1c[nH]c2ccccc12)C(=O)NCC(=O)N1CCC[C@H]1C(=O)N[C@H](C(=O)NCC(=O)N[C@@H](CC(=O)O)C(=O)N[C@@H](CCC(=O)O)C(=O)N[C@@H](CC(=O)O)C(N)=O)[C@@H](C)O
B3: …(N-Me-D) (peptide)
peptide: Ac-EDDSDVWWGGADT[NMeD]-NH2
SMILES: CC(=O)N[C@@H](CCC(=O)O)C(=O)N[C@@H](CC(=O)O)C(=O)N[C@@H](CC(=O)O)C(=O)N[C@@H](CO)C(=O)N[C@@H](CC(=O)O)C(=O)N[C@H](C(=O)N[C@@H](Cc1c[nH]c2ccccc12)C(=O)N[C@@H](Cc1c[nH]c2ccccc12)C(=O)NCC(=O)NCC(=O)N[C@@H](C)C(=O)N[C@@H](CC(=O)O)C(=O)N[C@H](C(=O)N(C)[C@@H](CC(=O)O)C(N)=O)[C@@H](C)O)C(C)C
B4: …aDED (peptide)
peptide: Ac-ETEFIAWGPT[dA]DED-NH2
SMILES: CC[C@H](C)[C@H](NC(=O)[C@H](Cc1ccccc1)NC(=O)[C@H](CCC(=O)O)NC(=O)[C@@H](NC(=O)[C@H](CCC(=O)O)NC(C)=O)[C@@H](C)O)C(=O)N[C@@H](C)C(=O)N[C@@H](Cc1c[nH]c2ccccc12)C(=O)NCC(=O)N1CCC[C@H]1C(=O)N[C@H](C(=O)N[C@H](C)C(=O)N[C@@H](CC(=O)O)C(=O)N[C@@H](CCC(=O)O)C(=O)N[C@@H](CC(=O)O)C(N)=O)[C@@H](C)O
B5: ETEFIA(N-Me-W)GPTGDED (peptide)
peptide: Ac-ETEFIA[NMeW]GPTGDED-NH2
SMILES: CC[C@H](C)[C@H](NC(=O)[C@H](Cc1ccccc1)NC(=O)[C@H](CCC(=O)O)NC(=O)[C@@H](NC(=O)[C@H](CCC(=O)O)NC(C)=O)[C@@H](C)O)C(=O)N[C@@H](C)C(=O)N(C)[C@@H](Cc1c[nH]c2ccccc12)C(=O)NCC(=O)N1CCC[C@H]1C(=O)N[C@H](C(=O)NCC(=O)N[C@@H](CC(=O)O)C(=O)N[C@@H](CCC(=O)O)C(=O)N[C@@H](CC(=O)O)C(N)=O)[C@@H](C)O
B6: (N-Me-E)… (peptide)
peptide: Ac-[NMeE]TEFIAWGPTGDED-NH2
SMILES: CC[C@H](C)[C@H](NC(=O)[C@H](Cc1ccccc1)NC(=O)[C@H](CCC(=O)O)NC(=O)[C@@H](NC(=O)[C@H](CCC(=O)O)N(C)C(C)=O)[C@@H](C)O)C(=O)N[C@@H](C)C(=O)N[C@@H](Cc1c[nH]c2ccccc12)C(=O)NCC(=O)N1CCC[C@H]1C(=O)N[C@H](C(=O)NCC(=O)N[C@@H](CC(=O)O)C(=O)N[C@@H](CCC(=O)O)C(=O)N[C@@H](CC(=O)O)C(N)=O)[C@@H](C)O
B7: peptide 38 (Ac-ETEFIAWG(N-Me-G)TGDED-NH2) (peptide)
peptide: Ac-ETEFIAWG[Sar]TGDED-NH2
SMILES: CC[C@H](C)[C@H](NC(=O)[C@H](Cc1ccccc1)NC(=O)[C@H](CCC(=O)O)NC(=O)[C@@H](NC(=O)[C@H](CCC(=O)O)NC(C)=O)[C@@H](C)O)C(=O)N[C@@H](C)C(=O)N[C@@H](Cc1c[nH]c2ccccc12)C(=O)NCC(=O)N(C)CC(=O)N[C@H](C(=O)NCC(=O)N[C@@H](CC(=O)O)C(=O)N[C@@H](CCC(=O)O)C(=O)N[C@@H](CC(=O)O)C(N)=O)[C@@H](C)O
B8: E(N-Me-T)… (peptide)
peptide: Ac-E[NMeT]EFIAWGPTGDED-NH2
SMILES: CC[C@H](C)[C@H](NC(=O)[C@H](Cc1ccccc1)NC(=O)[C@H](CCC(=O)O)NC(=O)[C@H]([C@@H](C)O)N(C)C(=O)[C@H](CCC(=O)O)NC(C)=O)C(=O)N[C@@H](C)C(=O)N[C@@H](Cc1c[nH]c2ccccc12)C(=O)NCC(=O)N1CCC[C@H]1C(=O)N[C@H](C(=O)NCC(=O)N[C@@H](CC(=O)O)C(=O)N[C@@H](CCC(=O)O)C(=O)N[C@@H](CC(=O)O)C(N)=O)[C@@H](C)O
B9: ET(N-Me-E)… (peptide)
peptide: Ac-ET[NMeE]FIAWGPTGDED-NH2
SMILES: CC[C@H](C)[C@H](NC(=O)[C@H](Cc1ccccc1)NC(=O)[C@H](CCC(=O)O)N(C)C(=O)[C@@H](NC(=O)[C@H](CCC(=O)O)NC(C)=O)[C@@H](C)O)C(=O)N[C@@H](C)C(=O)N[C@@H](Cc1c[nH]c2ccccc12)C(=O)NCC(=O)N1CCC[C@H]1C(=O)N[C@H](C(=O)NCC(=O)N[C@@H](CC(=O)O)C(=O)N[C@@H](CCC(=O)O)C(=O)N[C@@H](CC(=O)O)C(N)=O)[C@@H](C)O
B10: ETEF(N-Me-I)… (peptide)
peptide: Ac-ETEF[NMeI]AWGPTGDED-NH2
SMILES: CC[C@H](C)[C@@H](C(=O)N[C@@H](C)C(=O)N[C@@H](Cc1c[nH]c2ccccc12)C(=O)NCC(=O)N1CCC[C@H]1C(=O)N[C@H](C(=O)NCC(=O)N[C@@H](CC(=O)O)C(=O)N[C@@H](CCC(=O)O)C(=O)N[C@@H](CC(=O)O)C(N)=O)[C@@H](C)O)N(C)C(=O)[C@H](Cc1ccccc1)NC(=O)[C@H](CCC(=O)O)NC(=O)[C@@H](NC(=O)[C@H](CCC(=O)O)NC(C)=O)[C@@H](C)O
B11: …(N-Me-G)DED (peptide)
peptide: Ac-ETEFIAWGPT[Sar]DED-NH2
SMILES: CC[C@H](C)[C@H](NC(=O)[C@H](Cc1ccccc1)NC(=O)[C@H](CCC(=O)O)NC(=O)[C@@H](NC(=O)[C@H](CCC(=O)O)NC(C)=O)[C@@H](C)O)C(=O)N[C@@H](C)C(=O)N[C@@H](Cc1c[nH]c2ccccc12)C(=O)NCC(=O)N1CCC[C@H]1C(=O)N[C@H](C(=O)N(C)CC(=O)N[C@@H](CC(=O)O)C(=O)N[C@@H](CCC(=O)O)C(=O)N[C@@H](CC(=O)O)C(N)=O)[C@@H](C)O
B12: ETE(N-Me-F)… (peptide)
peptide: Ac-ETE[NMeF]IAWGPTGDED-NH2
SMILES: CC[C@H](C)[C@H](NC(=O)[C@H](Cc1ccccc1)N(C)C(=O)[C@H](CCC(=O)O)NC(=O)[C@@H](NC(=O)[C@H](CCC(=O)O)NC(C)=O)[C@@H](C)O)C(=O)N[C@@H](C)C(=O)N[C@@H](Cc1c[nH]c2ccccc12)C(=O)NCC(=O)N1CCC[C@H]1C(=O)N[C@H](C(=O)NCC(=O)N[C@@H](CC(=O)O)C(=O)N[C@@H](CCC(=O)O)C(=O)N[C@@H](CC(=O)O)C(N)=O)[C@@H](C)O

These binders were tested against Sushi domains (SD1/2) protein of the GABAB1a (GB1a) subunit, recombinant (assay: FP competition).
Chain of Sushi domains (SD1/2) protein of the GABAB1a (GB1a) subunit, recombinant (Q9Z0U4 29-158): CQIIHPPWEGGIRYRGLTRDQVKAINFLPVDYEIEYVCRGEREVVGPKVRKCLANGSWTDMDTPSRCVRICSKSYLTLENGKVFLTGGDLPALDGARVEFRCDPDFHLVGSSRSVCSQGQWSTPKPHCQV

| Binder | Ki |
| --- | --- |
| Ac-ETEFIAWGPTGDAD-NH2 | 38 nM |
| B1 | 77 nM |
| Ac-ETEFIAWGPAGDED-NH2 | 89 nM |
| B2 | 46 nM |
| Ac-E[dT]EFIAWGPTGDED-NH2 [Et…] | 56 nM |
| B3 | 565 nM |
| Ac-ETEFIAWGPTG[dD]ED-NH2 […dED] | 29 nM |
| B4 | 54 nM |
| Ac-EAEFIAWGPTGDED-NH2 | 34 nM |
| Ac-ETEFIAWAPTGDED-NH2 | 196 nM |
| B5 | 46 nM |
| B6 | 35 nM |
| B7 | 32 nM |
| Ac-ETEFIAWG[dP]TGDED-NH2 [ETEFIAWGpTGDED] | 352 nM |
| Ac-ATEFIAWGPTGDED-NH2 | 53 nM |
| B8 | 37 nM |

| Binder | Ki |
| --- | --- |
| Ac-ETAFIAWGPTGDED-NH2 | 49 nM |
| Ac-ETEFIAW[dA]PTGDED-NH2 [ETEFIAWaPTGDED] | 5400 nM |
| Ac-ETEFIAWGPTGDE[dD]-NH2 […d] | 39 nM |
| Ac-ETEAIAWGPTGDED-NH2 | 688 nM |
| Ac-ET[dE]FIAWGPTGDED-NH2 [ETe…] | 178 nM |
| Ac-ETEFIAWGPTGDEA-NH2 | 44 nM |
| B9 | 159 nM |
| Ac-ETEFIAWGATGDED-NH2 | 291 nM |
| B10 | 33 nM |
| Ac-ETEFIAWGPTGD[dE]D-NH2 […eD] | 44 nM |
| Ac-ETEFIAWGPTGAED-NH2 | 50 nM |
| Ac-ETE[dF]IAWGPTGDED-NH2 [ETEf…] | 930 nM |
| B11 | 132 nM |
| Ac-ETEFIAWGPTADED-NH2 | 20 nM |
| B12 | 252 nM |
